# Measured values taken from the nanobody polyreactivity screen of Harvey et al. (2022).
# Test: yeast display, Sf9 membrane polyspecificity reagent, FACS + sequencing; frameworks hold sequencing errors
# Method in brief: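 Nanobodies from a synthetic yeast display library (Saccharomyces cerevisiae BJ5465), induced 36–48 hours with galactose, were stained 1 hour at 4 °C with 10% biotinylated, detergent-solubilized Sf9 membrane reagent, enriched on streptavidin microbeads, then FACS-sorted. Anti-HA (expression) and streptavidin (reagent binding) fluorescence set low and high (top ~1%) gates. Polyreactivity labels come from the gate of origin. Genes were colony-PCR amplified, MiSeq 2 × 250 sequenced and filtered by CDR length.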
row,Sequence,polyreactivity (PSR sort gate)
1,QVQLVESGGGLVQAGGSLRLSCAASGSTFVDNAMGWYRQAPGKERELVADISSGGSTYYADSVKGRFTISRDNAKNTVYLQMNSLKPEDTAVYYCAARRITSTDEYYWGQGTQVTVSS,high polyreactivity
2,QVQLVESGGGLVQAGGSLRLSCAASGSTFVSYVMGWYRQAHGKERELVATSSGRAGRTYYADSVKGRFTISRDNAKNTVSLQMNSLKPEDTAVYYCNAGQWRYPGLYYYWGQATQVTVSS,high polyreactivity
3,QVQLVESGGGLVQARGSLRLSCAASGFIYRYNVMGWYRQAPGKERELVAAISTSGGRTYYADSVKGRFTISRDNAKITVYLQMNSLKPEDTAVYYCIAVISEVHKVRDGFYWGQGSQVTVSS,high polyreactivity
4,QVQLVESGGGLVQAGGSLRLSCAASGRIFYTNAMGWSRQAPGKERELVAVISWGGDTTYYADSVKGRFTISRDNAKNTVYLQMNSLKPEDTAVYYCNADWGPTYEIYDSWGQGTQVTVSS,low polyreactivity
5,QVQLVESGGGLVQAGGSLRLSCAASGRIFRWNAMGWYRQAPGKERDLVAAISWRGANTYYADSVKGRFTISRDNAKNTVYLQMNSLKPEDTAVYYCARYSYRGSQSDSWGQGTQVTVSS,high polyreactivity
6,QVQLVESGGGLVQAGGSLRLSCADSGRTIYRNGMGWYRKAPGKEREFVAAINYRGGSTNYADSVKWRFTISRDKAKNTVYLQMNSLKPEDTAVYYCATRIFRAALRFDYWGQGTQVTVSS,high polyreactivity
7,QVQLVESGGGLVQAGGSLRLSCAASGRISTFYAMGWYRQAPGKERELVAGIRWRGGSTYYADSVKGRFTISRDNAKNTVYLQMNSLKPEDTAVYYCNAVPRRRRYSRLGYWGQGTQVTVSS,high polyreactivity
8,QVQLVESGGGLVQAGGSLRLICAASGATFVDYTMGWYRQAPGKERELVAAITVSAGSTYYADSVKGRFTISRDNAKNTVYLQMNSLKPEDTAVYYCAKATSSFYHYRYDYWGQGTQVTVSS,low polyreactivity
9,QVQLVESGGGLVQAGGSLRLSCAASGRTFLLNAMGWYRQAPGKERELVAAITRSGVITYYADSVKGRFTISRDIAKNTVYFQMNSLKPEDTAVFYCAAQLRYSYLRPSYYYWGQGTQVTVSS,high polyreactivity
10,QVQLVESRGGLVQAGGSLRLSCAASGITFRTYSMGWYRQAPGKERELVAGIRTRTGSTYYADSVKGRFTISRDNAKNTVYLQMNSLKPEDTAVYYCAAKGSGYYGRQRIYSYTYDYWGQGTQVTVSS,high polyreactivity
11,QVQLVESGGRLVQAGGSLSLSCAASGRTFHGYAMGWYRQAPGKERELVARINWSDGRTYYADSVKGRFTISRDNAKNTDYLQMNSLKPEDTAVYYCAADKTVSYAPAWYYYWGQGTQVSVSS,low polyreactivity
12,QVQLVESGGGLVQAGGSLRLSCAASGRTLYHYGMGWYRQAPGKERELVAAINFSGGSTNYADSVKGRFTISRDNAKNTVYLQMNSLKPEDTAVYYCNNEGRPDRDYWGQGTQVTVSS,low polyreactivity
13,QVQLVESGGGLVQAGGSLRLSCAASGSTFQYYTMGWYRQAPGKERELVAAITRSGGRTYYADSVKGRFTISRDNAKNTVYLQMNSLKPEDTAVYYCAALDSRYSGDDYDSWGQGTQVTVSS,high polyreactivity
14,QVHLVESGGGLVQAGGSLRLSFAASGSTFYVNAMGWYRQAPGKERELVAAIRYSGGRTYYADSVKGRFTISRDNAKNNVYLQLNRLKPEDTAVYFCAATTYYGGLYTREFDYWGQGTQVTVSS,low polyreactivity
15,QVQLVESGGGLVQAGGSLRLSCAASGRTFKVYAMGWYRQAPGKERELVAAISDRGGSTYYADSVKGRFTISRDNAKNSVYLQMNSLKPEDTAVYYCSAEYARSTWRAYPELDYWGQGTQVTVSS,low polyreactivity
16,QVQLVESGGGLVQAGGSLRLSCAASGITFGVYGKGWYRQEPGKERELVAAISRTGGSTYYADSVKGRFTISRDNAKNTVYLQMNSLKPEDTAVYYCNARPVGRVIGDYWGQGTQVTVSS,high polyreactivity
